Results from patent US20150344548A1.

Assays:
[1] = target: Staphylococcus aureus protein A (SpA) in the cell wall of SA bacteria (strain ATCC #25923 and clinical isolate 00X) (Staphylococcus aureus); assay: flow cytometry: SA clinical isolate 00X incubated with biotinylated MABp1 (negative control), then streptavidin-APC; mean fluorescence FL4-H from the table beside the histogram (top panel)
[2] = target: Staphylococcus aureus protein A (SpA) in the cell wall of SA bacteria (strain ATCC #25923 and clinical isolate 00X) (Staphylococcus aureus); assay: flow cytometry: SA strain ATCC #25923 incubated with biotinylated MABp1 (negative control), then streptavidin-APC; mean fluorescence FL4-H from the table beside the histogram (bottom panel)
[3] = target: Staphylococcus aureus protein A (SpA) in the cell wall of SA bacteria (strain ATCC #25923 and clinical isolate 00X) (Staphylococcus aureus); assay: flow cytometry: SA clinical isolate 00X pre-incubated with human sera for 15 minutes, then biotinylated MABp1-IgG3 (isotype-matched negative control), then streptavidin-APC (top panel)
[4] = target: Staphylococcus aureus protein A (SpA) in the cell wall of SA bacteria (strain ATCC #25923 and clinical isolate 00X) (Staphylococcus aureus); assay: flow cytometry: SA strain ATCC #25923 by the legend (printed on the sheet as 25935) pre-incubated with human sera for 15 minutes, then biotinylated MABp1-IgG3 (isotype-matched negative control), then streptavidin-APC (bottom panel)

Substance	Mean:FL4-H [1]	Mean:FL4-H [2]	Mean:FL4-H [3]	Mean:FL4-H [4]
MABp1-IgG1 (antibody)	29.8	46.7		
MABp1-IgG3 (antibody)			19.1	10.3
